Series [1] deals with HeLa Kyoto. In words: solubility in G1/S (NP-40 vs SDS abundance) (log2 ratio); higher = more soluble. Particulars: cell cycle stage: G1/S.
In series [2] the test system is HeLa Kyoto. In words: melting temperature (median over replicates), in situ; higher = more thermally stable.
The test system of series [3] is HeLa Kyoto. In words: solubility change mitosis vs G1/S (difference of NP-40 vs SDS log2 ratios) (log2 ratio difference); higher = more soluble in mitosis.
For series [4], the system named is HeLa Kyoto. In words: thermal stability score vs G1/S (z-score of summed log2 fold changes over temperatures); higher = more thermally stable than in G1/S.
The mark [5] stands for this setting: cell cycle stage: early G1 (4.5 h after nocodazole release).
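Throughout, for melting temperature (median over replicates), in situ: HeLa Kyoto cells synchronized by double thymidine or nocodazole block, proteins quantified by TMT10plex mass spectrometry, three independent biological replicates.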
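Throughout, for solubility change mitosis vs G1/S (difference of NP-40 vs SDS log2 ratios): synchronized HeLa Kyoto cells (double thymidine block for G1/S, nocodazole release for mitosis), protein amounts in NP-40 versus SDS lysates quantified by mass spectrometry, three biological replicates.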
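Throughout, for solubility in G1/S (NP-40 vs SDS abundance): HeLa Kyoto cells arrested at G1/S by double thymidine block, proteins quantified by TMT10plex mass spectrometry in mild NP-40 versus SDS extracts, three biological replicates.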
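Throughout, for thermal stability score vs G1/S (z-score of summed log2 fold changes over temperatures): synchronized HeLa Kyoto cells, proteins quantified by TMT10plex mass spectrometry, three biological replicates, mitosis taken 0.5 h after nocodazole release, G1/S directly after double thymidine block.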

“MGVRGLQGFVGSTCPHICTVVNFKELAEHHRSKYPGCTPTIVVDAMCCLRYWYTPESWICGGQWREYFSALRDFVKTFTAAGIKLIFFFDGMVEQDKRDEWVKRRLKNNREISRIFHYIKSHKEQPGRNMFFIPSGLAVFTRFALKTLGQETLCSLQEADYEVASYGLQHNCLGILGEDTDYLIYDTCPYFSISELCLESLDTVMLCREKLCESLGLCVADLPLLACLLGNDIIPEGMFESFRYKCLSSYTSVKENFDKKGNIILAVSDHISKVLYLYQGEKKLEEILPLGPNKALFYKGMASYLLPGQKSPWFFQKPKGVITLDKQVISTSSDAESREEVPMCSDAESRQEVPMCTGPESRREVPVYTDSEPRQEVPMCSDPEPRQEVPTCTGPESRREVPMCSDPEPRQEVPMCTGPEARQEVPMYTDSEPRQEVPMYTDSEPRQEVPMYTGSEPRQEVPMYTGPESRQEVPMYTGPESRQEVLIRTDPESRQEIMCTGHESKQEVPICTDPISKQEDSMCTHAEINQKLPVATDFEFKLEALMCTNPEIKQEDPTNVGPEVKQQVTMVSDTEILKVARTHHVQAESYLVYNIMSSGEIECSNTLEDELDQALPSQAFIYRPIRQRVYSLLLEDCQDVTSTCLAVKEWFVYPGNPLRHPDLVRPLQMTIPGGTPSLKILWLNQEPEIQVRRLDTLLACFNLSSSREELQAVESPFQALCCLLIYLFVQVDTLCLEDLHAFIAQALCLQGKSTSQLVNLQPDYINPRAVQLGSLLVRGLTTLVLVNSACGFPWKTSDFMPWNVFDGKLFHQKYLQSEKGYAVEVLLEQNRSRLTKFHNLKAVVCKACMKENRRITGRAHWGSHHAGRWGRQGSSYHRTGSGYSRSSQGQPWRDQGPGSRQYEHDQWRRY [FAM120B]”: in the series with HeLa Kyoto [1], the “solubility in G1/S (log2)” value was -0.319. Besides, the values for the melting temperature in the series with HeLa Kyoto [2] (cell cycle stage: G1/S) and in the series with HeLa Kyoto [2] (cell cycle stage: mitosis) were 50.2 °C and 49.1 °C, respectively. Also, the “solubility change mitosis (log2)” value in the series on HeLa Kyoto [3] is -0.0624. Also, the thermal stability score in the series on HeLa Kyoto [4] (setting [5]) turned out to be 1.29; with HeLa Kyoto [4] (cell cycle stage: mitosis) it was 1.3.
“MHGRLKVKTSEEQAEAKRLEREQKLKLYQSATQAVFQKRQAGELDESVLELTSQILGANPDFATLWNCRREVLQQLETQKSPEELAALVKAELGFLESCLRVNPKSYGTWHHRCWLLGRLPEPNWTRELELCARFLEVDERNFHCWDYRRFVATQAAVPPAEELAFTDSLITRNFSNYSSWHYRSCLLPQLHPQPDSGPQGRLPEDVLLKELELVQNAFFTDPNDQSAWFYHRWLLGRADPQDALRCLHVSRDEACLTVSFSRPLLVGSRMEILLLMVDDSPLIVEWRTPDGRNRPSHVWLCDLPAASLNDQLPQHTFRVIWTAGDVQKECVLLKGRQEGWCRDSTTDEQLFRCELSVEKSTVLQSELESCKELQELEPENKWCLLTIILLMRALDPLLYEKETLQYFQTLKAVDPMRATYLDDLRSKFLLENSVLKMEYAEVRVLHLAHKDLTVLCHLEQLLLVTHLDLSHNRLRTLPPALAALRCLEVLQASDNAIESLDGVTNLPRLQELLLCNNRLQQPAVLQPLASCPRLVLLNLQGNPLCQAVGILEQLAELLPSVSSVLT [RABGGTA]”: in the series on HeLa Kyoto [1], the “solubility in G1/S (log2)” value came out at 0.0201. Moreover, the melting temperature in the series with HeLa Kyoto [2] (cell cycle stage: G1/S) was 53.8 °C; with HeLa Kyoto [2] (cell cycle stage: mitosis), 53.3 °C. Besides, the “solubility change mitosis (log2)” value with HeLa Kyoto [3] is -0.067. In addition, the thermal stability score in the series on HeLa Kyoto [4] (setting [5]) is -0.496; with HeLa Kyoto [4] (cell cycle stage: mitosis), -1.06.
For the sequence “MHKHQHCCKCPECYEVTRLAALRRLEPPGYGDWQVPDPYGPGGGNGASAGYGGYSSQTLPSQAGATPTPRTKAKLIPTGRDVGPVPPKPVPGKSTPKLNGSGPSWWPECTCTNRDWYEQVNGSDGMFKYEEIVLERGNSGLGFSIAGGIDNPHVPDDPGIFITKIIPGGAAAMDGRLGVNDCVLRVNEVDVSEVVHSRAVEALKEAGPVVRLVVRRRQPPPETIMEVNLLKGPKGLGFSIAGGIGNQHIPGDNSIYITKIIEGGAAQKDGRLQIGDRLLAVNNTNLQDVRHEEAVASLKNTSDMVYLKVAKPGSLHLNDMYAPPDYASTFTALADNHISHNSSLGYLGAVESKVSYPAPPQVPPTRYSPIPRHMLAEEDFTREPRKIILHKGSTGLGFNIVGGEDGEGIFVSFILAGGPADLSGELRRGDRILSVNGVNLRNATHEQAAAALKRAGQSVTIVAQYRPEEYSRFESKIHDLREQMMNSSMSSGSGSLRTSEKRSLYVRALFDYDRTRDSCLPSQGLSFSYGDILHVINASDDEWWQARLVTPHGESEQIGVIPSKKRVEKKERARLKTVKFHARTGMIESNRDFPGLSDDYYGAKNLKGQEDAILSYEPVTRQEIHYARPVIILGPMKDRVNDDLISEFPHKFGSCVPHTTRPRRDNEVDGQDYHFVVSREQMEKDIQDNKFIEAGQFNDNLYGTSIQSVRAVAERGKHCILDVSGNAIKRLQQAQLYPIAIFIKPKSIEALMEMNRRQTYEQANKIYDKAMKLEQEFGEYFTAIVQGDSLEEIYNKIKQIIEDQSGHYIWVPSPEKL [DLG3]”, in the series on HeLa Kyoto [1], the “solubility in G1/S (log2)” value amounted to 0.141. Further, the results for the melting temperature with HeLa Kyoto [2] (cell cycle stage: G1/S) and in the series on HeLa Kyoto [2] (cell cycle stage: mitosis) were 52.9 °C and 53.1 °C, respectively. The “solubility change mitosis (log2)” value in the series on HeLa Kyoto [3] is -0.139. For the same sequence, the thermal stability score was -0.454 with HeLa Kyoto [4] (setting [5]) and -1.05 in the series on HeLa Kyoto [4] (cell cycle stage: mitosis).
As to “MHPPETTTKMASVRFMVTPTKIDDIPGLSDTSPDLSSRSSSRVRFSSRESVPETSRSEPMSEMSGATTSLATVALDPPSDRTSHPQDVIEDLSQNSITGEHSQLLDDGHKKARNAYLNNSNYEEGDEYFDKNLALFEEEMDTRPKVSSLLNRMANYTNLTQGAKEHEEAENITEGKKKPTKTPQMGTFMGVYLPCLQNIFGVILFLRLTWVVGTAGVLQAFAIVLICCCCTMLTAISMSAIATNGVVPAGGSYFMISRALGPEFGGAVGLCFYLGTTFAAAMYILGAIEIFLVYIVPRAAIFHSDDALKESAAMLNNMRVYGTAFLVLMVLVVFIGVRYVNKFASLFLACVIVSILAIYAGAIKSSFAPPHFPVCMLGNRTLSSRHIDVCSKTKEINNMTVPSKLWGFFCNSSQFFNATCDEYFVHNNVTSIQGIPGLASGIITENLWSNYLPKGEIIEKPSAKSSDVLGSLNHEYVLVDITTSFTLLVGIFFPSVTGIMAGSNRSGDLKDAQKSIPIGTILAILTTSFVYLSNVVLFGACIEGVVLRDKFGDAVKGNLVVGTLSWPSPWVIVIGSFFSTCGAGLQSLTGAPRLLQAIAKDNIIPFLRVFGHSKANGEPTWALLLTAAIAELGILIASLDLVAPILSMFFLMCYLFVNLACALQTLLRTPNWRPRFRYYHWALSFMGMSICLALMFISSWYYAIVAMVIAGMIYKYIEYQGAEKEWGDGIRGLSLSAARFALLRLEEGPPHTKNWRPQLLVLLKLDEDLHVKHPRLLTFASQLKAGKGLTIVGSVIVGNFLENYGEALAAEQTIKHLMEAEKVKGFCQLVVAAKLREGISHLIQSCGLGGMKHNTVVMGWPNGWRQSEDARAWKTFIGTVRVTTAAHLALLVAKNISFFPSNVEQFSEGNIDVWWIVHDGGMLMLLPFLLKQHKVWRKCSIRIFTVAQLEDNSIQMKKDLATFLYHLRIEAEVEVVEMHDSDISAYTYERTLMMEQRSQMLRHMRLSKTERDREAQLVKDRNSMLRLTSIGSDEDEETETYQEKVHMTWTKDKYMASRGQKAKSMEGFQDLLNMRPDQSNVRRMHTAVKLNEVIVNKSHEAKLVLLNMPGPPRNPEGDENYMEFLEVLTEGLERVLLVRGGGSEVITIYS [SLC12A6]”, the “solubility in G1/S (log2)” value in the series with HeLa Kyoto [1] is -0.0182. Moreover, the melting temperature with HeLa Kyoto [2] (cell cycle stage: G1/S) turned out to be 54.8 °C; in the series on HeLa Kyoto [2] (cell cycle stage: mitosis), 54.4 °C. Further, the “solubility change mitosis (log2)” value in the series on HeLa Kyoto [3] worked out at 0.00121. Moreover, the thermal stability score is -0.231 in the series on HeLa Kyoto [4] (setting [5]) and -0.0357 with HeLa Kyoto [4] (cell cycle stage: mitosis).
On to “MHPPKTPSGALHRKRKMAAWPFSRLWKVSDPILFQMTLIAALLPAVLGNCGPPPTLSFAAPMDITLTETRFKTGTTLKYTCLPGYVRSHSTQTLTCNSDGEWVYNTFCIYKRCRHPGELRNGQVEIKTDLSFGSQIEFSCSEGFFLIGSTTSRCEVQDRGVGWSHPLPQCEIVKCKPPPDIRNGRHSGEENFYAYGFSVTYSCDPRFSLLGHASISCTVENETIGVWRPSPPTCEKITCRKPDVSHGEMVSGFGPIYNYKDTIVFKCQKGFVLRGSSVIHCDADSKWNPSPPACEPNSCINLPDIPHASWETYPRPTKEDVYVVGTVLRYRCHPGYKPTTDEPTTVICQKNLRWTPYQGCEALCCPEPKLNNGEITQHRKSRPANHCVYFYGDEISFSCHETSRFSAICQGDGTWSPRTPSCGDICNFPPKIAHGHYKQSSSYSFFKEEIIYECDKGYILVGQAKLSCSYSHWSAPAPQCKALCRKPELVNGRLSVDKDQYVEPENVTIQCDSGYGVVGPQSITCSGNRTWYPEVPKCEWETPEGCEQVLTGKRLMQCLPNPEDVKMALEVYKLSLEIEQLELQRDSARQSTLDKEL [C4BPA]”, for which the “solubility in G1/S (log2)” value with HeLa Kyoto [1] was -0.459. For the same sequence, the results for the melting temperature with HeLa Kyoto [2] (cell cycle stage: G1/S) and with HeLa Kyoto [2] (cell cycle stage: mitosis) were 54.4 °C and 56.1 °C, respectively. For the same sequence, the “solubility change mitosis (log2)” value in the series on HeLa Kyoto [3] was -0.146. In addition, the thermal stability score in the series with HeLa Kyoto [4] (setting [5]) was determined as 5.62; with HeLa Kyoto [4] (cell cycle stage: mitosis), 9.17.

The values are drawn from the supplement of paper PMC5998384.
